Test results: article PMC10992996, “Human CRB1 and CRB2 form homo- and heteromeric protein complexes in the retina” (Life Science Alliance, 2024)

Molecular target: T1, CRB1-FLAG p.C480R (human, UniProt P82279 26-1406, p.C480R)
T1 construct: Crumbs homolog 1, canonical form, human, cDNA NM_202153 as printed, with a patient missense mutation; Made by site-directed mutagenesis of m1; also called CRB1 p.C480R; CRB1-FLAG MT; source: HEK293T, transfected, in lysate; not shown: Strep-Strep-FLAG, N-terminal, kept
T1 sequence (looked up): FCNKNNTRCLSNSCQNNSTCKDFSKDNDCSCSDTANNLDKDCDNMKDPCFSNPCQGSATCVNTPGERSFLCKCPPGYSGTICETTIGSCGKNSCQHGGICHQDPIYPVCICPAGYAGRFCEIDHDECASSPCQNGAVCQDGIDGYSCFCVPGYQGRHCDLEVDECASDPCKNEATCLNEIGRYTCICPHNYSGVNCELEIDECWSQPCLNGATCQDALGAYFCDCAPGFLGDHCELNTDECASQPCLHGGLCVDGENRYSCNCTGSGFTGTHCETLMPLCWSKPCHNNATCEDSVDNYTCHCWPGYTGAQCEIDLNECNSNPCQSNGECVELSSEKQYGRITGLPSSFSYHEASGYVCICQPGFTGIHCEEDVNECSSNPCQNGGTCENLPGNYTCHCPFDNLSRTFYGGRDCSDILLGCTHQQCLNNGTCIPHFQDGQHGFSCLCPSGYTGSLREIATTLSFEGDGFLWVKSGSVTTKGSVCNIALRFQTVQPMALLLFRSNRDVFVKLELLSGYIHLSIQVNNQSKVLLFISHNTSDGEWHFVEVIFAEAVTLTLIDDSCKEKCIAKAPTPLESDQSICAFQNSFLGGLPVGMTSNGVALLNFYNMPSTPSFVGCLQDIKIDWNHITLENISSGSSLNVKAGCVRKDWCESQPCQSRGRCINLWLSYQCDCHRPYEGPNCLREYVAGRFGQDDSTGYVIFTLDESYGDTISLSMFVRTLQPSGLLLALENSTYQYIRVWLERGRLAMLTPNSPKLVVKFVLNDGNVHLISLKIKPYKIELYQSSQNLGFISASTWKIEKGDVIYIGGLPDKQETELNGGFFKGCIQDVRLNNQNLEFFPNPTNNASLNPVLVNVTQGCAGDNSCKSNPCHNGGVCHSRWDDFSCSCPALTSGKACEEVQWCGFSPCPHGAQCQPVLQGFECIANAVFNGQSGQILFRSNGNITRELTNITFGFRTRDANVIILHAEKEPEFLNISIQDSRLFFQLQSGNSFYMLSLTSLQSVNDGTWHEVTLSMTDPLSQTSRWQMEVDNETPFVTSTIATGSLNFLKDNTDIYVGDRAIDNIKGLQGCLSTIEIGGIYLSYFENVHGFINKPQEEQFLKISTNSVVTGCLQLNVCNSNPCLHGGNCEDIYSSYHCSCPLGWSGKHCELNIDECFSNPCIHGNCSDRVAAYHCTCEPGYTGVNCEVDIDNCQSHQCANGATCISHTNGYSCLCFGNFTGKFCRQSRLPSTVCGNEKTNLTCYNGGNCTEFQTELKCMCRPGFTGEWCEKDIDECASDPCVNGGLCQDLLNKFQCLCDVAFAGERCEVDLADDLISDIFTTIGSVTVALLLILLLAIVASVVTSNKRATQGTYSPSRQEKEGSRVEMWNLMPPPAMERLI
Assay: co-IP; HEK293T cells co-transfected pairwise with a FLAG and an HA construct, 48 h; lysis in TBS (30 mM Tris-HCl pH 7.4, 150 mM NaCl) with 0.5% Nonidet P40; FLAG-IP on ANTI-FLAG M2 Affinity Gel 60-90 min at 4°C, elution with FLAG peptide; Western blot with HA and FLAG antibodies; for mutants HA/FLAG signal in eluates relative to WT, three biological replicates
Conditions: partners not purified

- percent of the interaction capacity relative to CRB1 WT: 96%
B1: Human canonical CRB2 (Crumbs homolog 2) (natural protein)
chain: not shown
notes: Crumbs homolog 2, human, cDNA NM_173689; Stood as bait (FLAG copy) and as prey (HA copy) in the pairwise co-IP matrix; each copy carries only one of the two tags; The FLAG copy was the bait of the mass spectrometry pull-downs; also called CRB2-FLAG; CRB2-HA; source: HEK293T, transfected, in lysate (co-IP); HEK293T, transfected, FLAG-IP on beads, washed and purified with 0.01% SDS (retina …)
